Measured values taken from the supplement of paper PMC10724198.
± gives the standard deviation of the averaged measurements.

system: Saccharomyces cerevisiae; experiment: protein stability index of tFT-peptide fusion (C-terminal peptide) (PSI (0-1 scale)); higher = more stable (slower turnover); conditions: genetic background: wild type; temperature: 30 C
Method: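 Multiplexed protein stability (MPS) profiling in S. cerevisiae. Random 12-aa peptides (tFT-X12 library) are fused to the C-terminus of a sfGFP-mCherry tandem fluorescent timer, after mCherry and a GGGS linker. Cells are FACS-sorted into 8 mCherry/sfGFP bins and deep-sequenced. The protein stability index (PSI) is the read-weighted bin average, scaled from 0 (unstable) to 1 (stable). Only peptides with >10 reads are reported; cells were grown at 30 °C in SC-His with glucose.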
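Also: PSI is a weighted mean of sequencing reads over stability bins, variants kept only with over 10 reads, mCherry proximal and sfGFP distal, peptide attached via GGGS linker.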

Point of comparison: SMMMIISQRKTR, protein stability index 0.787 ± 0.1. Against it:
- MGGKGRGGRREI — within error, 0.666 ± 0.041
- CTMEDLGNCEGI — within error, 0.691 ± 0.0082
- PPPHRPPPRPPR — within error, 0.697 ± 0.0094
- EGVSGVSLFRVL — within error, 0.661 ± 0.051
- PSLSPSLLRFNL — lower, 0.66 ± 0.015
- PLSPPPPPRPPL — within error, 0.728 ± 0.019
- MAIRSPACRLRF — within error, 0.674 ± 0.049
- PAGILMQDSRRA — lower, 0.589 ± 0.051
- LGGGAGAPPSHW — within error, 0.7 ± 0.024
- SICLLSAALPPP — within error, 0.708 ± 0.029
- WVWGWRRGLRGV — lower, 0.657 ± 0.011
- SPPPFFSPSLPP — within error, 0.65 ± 0.09
- EKRKEKKKRGKE — within error, 0.797 ± 0.16
- GLMGWGLFCGFG — within error, 0.7759 ± 0.0043
- GTWGGGGWSCES — within error, 0.725 ± 0.076
- GVLGCRWWGSMG — lower, 0.657 ± 0.015
- LLRFSFLHFLFY — lower, 0.6116 ± 0.003
- WCNLSFEDNYVT — lower, 0.658 ± 0.018
- GGRARRGLGGPG — lower, 0.6758 ± 0.0034
- VLLRSTRRPLPC — within error, 0.657 ± 0.036
- GGMRGGYRGRCV — within error, 0.679 ± 0.039
- PPPLSLTPPFLY — within error, 0.673 ± 0.074
- GPGGVGGTSGGK — within error, 0.69 ± 0.062
- RDAGPSKERNRR — within error, 0.675 ± 0.039
- VVSRTCVRWGLV — within error, 0.655 ± 0.039
- RVPPSRLSLPLS — within error, 0.6951 ± 0.0043
- DRGKGEKGKKAD — lower, 0.6797 ± 0.0036
- GGAVSRVGEGGR — within error, 0.785 ± 0.02
- PPTSPGPGSLYS — within error, 0.693 ± 0.036
- LRGGGGIVVGVV — lower, 0.563 ± 0.012
- VRGRLGGGVGRA — within error, 0.686 ± 0.079
- PGAHPVTLTIRL — lower, 0.647 ± 0.027
- NIMNKIFQKQKE — within error, 0.642 ± 0.092
- GEGALTGGAGGQ — lower, 0.647 ± 0.0074
- PPPPPHPPPHTR — within error, 0.678 ± 0.017
- IPRCSPAGVSSY — within error, 0.696 ± 0.064
- FCCSYLSRGDFL — within error, 0.702 ± 0.023
- PTRPPAPGPGRH — within error, 0.744 ± 0.045
- ERRKGGEKGKKK — within error, 0.691 ± 0.047
- PFVSHLDRWDIR — within error, 0.712 ± 0.041
- GVLVERLCGRGF — within error, 0.702 ± 0.049
- NRDGWWVSNGCR — within error, 0.796 ± 0.07
- QGGLCGVYGWSL — within error, 0.68 ± 0.042
- KINAKIYGSEKG — lower, 0.654 ± 0.015
- KKNKLKDSIKNI — lower, 0.663 ± 0.016
- CFRGGLLSESVV — lower, 0.6714 ± 0.0011
- NIIQTYITLNEL — within error, 0.74 ± 0.12
- PVPASSSRSLLL — lower, 0.671 ± 0.0095
- VVGRWRVCNVGL — lower, 0.626 ± 0.05
- IVWCAINYLFRS — lower, 0.63 ± 0.054
- YSGFYIRRGLTW — within error, 0.689 ± 0.011
- PLPPISSFPSLS — within error, 0.703 ± 0.028
- ATQTGFGGGGPM — within error, 0.689 ± 0.013
- GQKRKGTRSKVP — within error, 0.696 ± 0.026
- GLRLCLSMWLRD — lower, 0.633 ± 0.054
- PPPPSPPSPPPP — lower, 0.677 ± 0.0094
- PLPARFPPSPPS — within error, 0.743 ± 0.074
- HYYYPSPPSSRH — lower, 0.621 ± 0.042
- YDRVVHASSTMW — within error, 0.707 ± 0.013
- IRLFAPVVFLPL — within error, 0.644 ± 0.054
- LLAFSPFLPLPP — within error, 0.667 ± 0.046
- GCGFYRTSRVPS — within error, 0.717 ± 0.059
- PPYPPTPHQTSH — lower, 0.641 ± 0.034
- VRHSCRTTTPPS — within error, 0.708 ± 0.009
- VNKRRCIGERDG — within error, 0.6949 ± 0.0029
- MMFRRLPTRGRF — within error, 0.6951 ± 0.0021
- QKRAREKAPTPD — within error, 0.729 ± 0.012
- GSLHGTSAPPRF — within error, 0.731 ± 0.15
- MVGGVLLSGCRF — lower, 0.6455 ± 0.0021
- RQDLLILIKQKG — lower, 0.573 ± 0.0072
- KKTKNKKRIIRT — within error, 0.724 ± 0.051
- HPPLPRPPPVPH — within error, 0.683 ± 0.019
- FPPLSHLPPGLY — within error, 0.758 ± 0.075
- LIGASFGLYPVS — within error, 0.693 ± 0.07
- APARTTPRLPFA — within error, 0.724 ± 0.069
- VCGREVKCGEGY — within error, 0.691 ± 0.027
- PPRPPPPHHVPS — within error, 0.677 ± 0.093
- KENIRPSESYKC — within error, 0.668 ± 0.05
- GGGGAGGGAGGG — lower, 0.616 ± 0.042
- GRVEDAFSGGGI — within error, 0.643 ± 0.089
- GTCWAGAMGVVG — within error, 0.714 ± 0.043
- MGVGRFEWVVGG — within error, 0.665 ± 0.053
- PSRLSKTLLMGW — within error, 0.676 ± 0.07
- DFVKVVPNVVDL — within error, 0.659 ± 0.078
- QKKKILNKQRTK — within error, 0.681 ± 0.033
- VGVVVGLVRLLG — lower, 0.537 ± 0.039
- HPRLLLYLPTSS — within error, 0.726 ± 0.1
- AILFSASLTLLL — lower, 0.598 ± 0.012
- LLSIGTSTLFLL — lower, 0.636 ± 0.017
- LPPPPHRSRPPP — within error, 0.66 ± 0.06
- ALSVGGGSGSWY — within error, 0.736 ± 0.014
- CHALPPLLPDPL — within error, 0.715 ± 0.028
- SVYCVLSRGNRL — within error, 0.687 ± 0.1
- FFRYWLRWGWGV — within error, 0.695 ± 0.039
- PLPPPPAPPLPP — lower, 0.647 ± 0.024
- RGGSVGRGRLCL — lower, 0.643 ± 0.014
- YEGPSTLVYHVR — within error, 0.915 ± 0.082
